# From patent US20160222114A1 (published 2016)
# B1: hu Mab8D5 Fab' fragment (Fab, V domains shown)
# VH: EVQLVESGGGLVQPGGSLRLSCAASGFTISSYDMHWVRQATGKGLEWVSVIGPAGDTYYPGSVKGRFTISRENAKNSLYLQMNSLRAGDTAVYYCAREGMAAHNYYGMDVWGQGTTVTVSS
# VL: not shown
# B2: hu Mab8D5 G1 (IgG1 version of 8D5) (antibody, V domains shown)
# VH: B1 VH
# VL: not shown
# notes: same variable regions as hu Mab8D5; also called IgG1 version of hu Mab8D5; 8D5 IgG1 Mab
# B3: hu Mab8D5 (IgG4 version of 8D5, fully human monoclonal agonist anti-BTLA antibody) (antibody, V domains shown)
# VH: B1 VH
# VL: not shown
# notes: Rest: human IgG4/kappa; Re-expressed in CHO-S cells; also called hu Mab8D5 G4; 8D5 (G4) agonist
# What was measured:
# [1] = target: human BTLA, endogenous protein of peripheral blood B and T cells of healthy donors (human, UniProt Q7Z6A9 31-289); experiment: cell-based or functional assay
# [2] = target: T1, cynomolgus BTLA expressed on CHO cells (cynomolgus, UniProt A0A2K5W7M7 31-289); experiment: flow cytometry on CHO cells expressing cynomolgus BTLA, PE-anti-huFc detection
# T1 construct: whole, on cells; also called cyno BTLA; CHO cells expressing cynomolgus BTLA
# T1 sequence: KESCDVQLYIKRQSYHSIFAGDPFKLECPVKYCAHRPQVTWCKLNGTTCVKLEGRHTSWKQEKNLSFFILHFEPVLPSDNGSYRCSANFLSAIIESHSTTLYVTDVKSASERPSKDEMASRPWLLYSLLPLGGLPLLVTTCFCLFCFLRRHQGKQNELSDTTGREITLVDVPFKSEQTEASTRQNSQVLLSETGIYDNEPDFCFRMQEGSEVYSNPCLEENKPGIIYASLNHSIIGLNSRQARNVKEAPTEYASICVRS
# [3] = target: T2, human BTLA (analyte of the BIAcore measurements) (human, UniProt Q7Z6A9 31-156, limits assumed); experiment: BIAcore
# T2 sequence: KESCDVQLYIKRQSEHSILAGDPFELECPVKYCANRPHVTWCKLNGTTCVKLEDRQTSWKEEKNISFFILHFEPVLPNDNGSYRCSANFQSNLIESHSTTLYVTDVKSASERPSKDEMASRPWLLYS
# [4] = target: T2, human BTLA (analyte of the BIAcore …); experiment: BIAcore surface plasmon resonance
# [5] = target: T2, human BTLA (analyte of the BIAcore …); experiment: BIAcore, antibody captured on an anti-CH1 chip
# Text: For BIAcore, the test antibodies were captured on an anti-CH1 chip.
binder,measurement,setting,value
B1,relative potency of the Fab′ against the full Mab,[1],~10 fold less
B2,EC50,[2],~12 nM
B3,koff,[3],0.000137 s⁻¹
same,kon,[3],45800 M⁻¹ s⁻¹
same,Kd,[4],~2 nM
same,koff,[5],0.00019 s⁻¹
same,kon,[5],79000 M⁻¹ s⁻¹
same,EC50,[2],~12 nM
